Changes are numbered by the printed parent chain. Blank lines part the entries; values can stand above or below the binder they belong to.
Experiments:
[1] = biological target: T1, rHuman ErbB2/Fc Chimera, CF (R&D Systems Cat#1129-ER) (human, UniProt P04626 23-652); test: ECL (MSD Multi-Spot) binding assay, antigen spotted on plate; Fab 51 nM; blank spot 335;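 further: blank spot per well as comparator with Hit at signal to blank ratio of 4 or more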
T1 construct: Bought Fc chimera; also called HER2/neu; human epidermal growth factor 2 receptor; Fc part of the bought chimera not given

[2] = biological target: T2, rHuman IGF-1 sR (IGF-1 sR), CF (R&D Systems Cat#391-GR) (human, UniProt P08069 31-932); test: as above
T2 construct: Bought soluble receptor; also called insulin-like growth factor-1 soluble receptor; IGF-R1

[3] = biological target: T3, rHuman EGF R/Fc Chimera, CF (R&D Systems Cat#344-ER) (human, UniProt P00533 25-645); test: as above
T3 construct: Bought Fc chimera; also called epidermal growth factor receptor; Fc part of the bought chimera not given

[4] = biological target: T4, Recombinant Human DLL4 (R&D Systems Cat#1506-D4/CF) (human, UniProt Q9NR61 27-524); test: as above
T4 construct: Bought recombinant protein; also called delta-like protein 4; rHuman DLL4

[5] = biological target: T5, rHuman CD44/Fc Chimera, CF (R&D Systems Cat#3660-CD) (human, UniProt P16070 21-220); test: as above
T5 construct: Bought Fc chimera; Fc part of the bought chimera not given

[6] = biological target: T6, rHuman Notch-1/Fc Chimera, CF (R&D Systems Cat#3647-TK) (human, UniProt P46531 19-526); test: as above
T6 construct: Bought Fc chimera; Fc part of the bought chimera not given

[7] = biological target: T7, rHuman Erythropoietin R/Fc Chimera, CF (R&D Systems Cat#963-ER) (human, UniProt P19235 25-250); test: as above
T7 construct: Bought Fc chimera; also called EPO R/Fc; Epo R; Fc part of the bought chimera not given
T7 sequence: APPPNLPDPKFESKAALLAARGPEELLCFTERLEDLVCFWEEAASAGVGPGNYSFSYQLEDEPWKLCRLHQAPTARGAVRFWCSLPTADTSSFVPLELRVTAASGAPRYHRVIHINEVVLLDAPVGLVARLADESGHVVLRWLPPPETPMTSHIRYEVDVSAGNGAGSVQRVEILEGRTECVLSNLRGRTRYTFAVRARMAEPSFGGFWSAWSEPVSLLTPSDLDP

[8] = biological target: T8, rHuman HGF R/c-MET/Fc Chimera, CF (R&D Systems Cat#358-MT/CF) (human, UniProt P08581 25-932); test: ECL (MSD multi-spot), antigen on plate, Fab 0.5 nM
T8 construct: Bought Fc chimera; also called HGF R/Fc; not shown: Fc of the bought chimera

[9] = biological target: T9, rHuman Erythropoietin R/Fc Chimera, CF (R&D Systems Cat#963-ER) (human, UniProt P19235 25-250); test: ECL (MSD multi-spot), antigen on plate, Fab 0.5 nM
T9 construct: Bought Fc chimera; also called EPO R/Fc; Epo R; not shown: Fc of the bought chimera
T9 sequence: T7 sequence

[10] = biological target: T10, rHuman P-Cadherin/Fc Chimera, CF (R&D Systems Cat#861-PC) (human, UniProt P22223 108-654); test: ECL (MSD multi-spot), antigen on plate, Fab 0.5 nM
T10 construct: Bought Fc chimera; also called CDH3; not shown: Fc of the bought chimera

[11] = biological target: T11, rHuman IGF-1 sR (insulin-like growth factor-1 soluble receptor), CF (R&D Systems Cat#391-GR) (human, UniProt P08069 31-932); test: ECL (MSD multi-spot), antigen on plate, Fab 0.5 nM
T11 construct: Bought soluble receptor; also called IGF-R1

[12] = biological target: T12, rHuman EGF R/Fc Chimera, CF (R&D Systems Cat#344-ER) (human, UniProt P00533 25-645); test: ECL (MSD multi-spot), antigen on plate, Fab 0.5 nM
T12 construct: Bought Fc chimera; also called ErbB-1; not shown: Fc of the bought chimera

[13] = biological target: T13, Recombinant Human DLL4 (R&D Systems Cat#1506-D4/CF) (human, UniProt Q9NR61 27-524); test: ECL (MSD multi-spot), antigen on plate, Fab 0.5 nM
T13 construct: Bought recombinant protein; also called delta-like protein 4

[14] = biological target: T8, rHuman HGF R/c-MET/Fc Chimera, CF (R&D …); test: ECL (MSD multi-spot), antigen on plate, Fab 50 nM;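 further: blank spot per well as comparator with Hit at signal to blank ratio of 4 or more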
[15] = biological target: T14, rHuman CD44/Fc Chimera, CF (R&D Systems Cat#3660-CD) (human, UniProt P16070 21-220); test: ECL (MSD multi-spot), antigen on plate, Fab 50 nM;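 further: blank spot per well as comparator with Hit at signal to blank ratio of 4 or more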
T14 construct: Bought Fc chimera; not shown: Fc of the bought chimera

[16] = biological target: T15, rHuman ErbB2/Fc Chimera, CF (R&D Systems Cat#1129-ER) (human, UniProt P04626 23-652); test: ECL (MSD multi-spot), antigen on plate, Fab 50 nM;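 further: blank spot per well as comparator with Hit at signal to blank ratio of 4 or more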
T15 construct: Bought Fc chimera; also called HER2/neu; not shown: Fc of the bought chimera

[17] = biological target: T12, rHuman EGF R/Fc Chimera, CF (R&D …); test: ECL (MSD multi-spot), antigen on plate, Fab 50 nM
[18] = biological target: T13, Recombinant Human DLL4 (R&D Systems …); test: ECL (MSD multi-spot), antigen on plate, Fab 50 nM
[19] = biological target: T16, rHuman Notch-1/Fc Chimera, CF (R&D Systems Cat#3647-TK) (human, UniProt P46531 19-526); test: ECL (MSD multi-spot), antigen on plate, Fab 50 nM
T16 construct: Bought Fc chimera; not shown: Fc of the bought chimera

ECL signal [1]: 1250
ECL signal [2]: 1050
ECL signal [3]: 816
ECL signal [4]: 17000
ECL signal [5]: 651
ECL signal [6]: 685
ECL signal [7]: 750
B1: Fab VH5-51_IGHD5-18*01>3_IGHJ4*01 & V3-4_IGLJ1*01 (Fab, V domains shown)
VH: EVQLVQSGAEVKKPGESLKISCKGSGYSFTSYWIGWVRQMPGKGLEWMGIIYPGDSDTRYSPSFQGQVTISADKSISTAYLQWSSLKASDTAMYYCARRGYSYGYDYFDYWGQGTLVTVSS
VL: QTVVTQEPSFSVSPGGTVTLTCGLSSGSVSTSYYPSWYQQTPGQAPRTLIYSTNTRSSGVPDRFSGSILGNKAALTITGAQADDESDYYCVLYMGSGISYVFGTGTKVTVL
notes: Tested as a Fab made in E. coli; also called IGHV5-51*03

ECL signal [8]: 1690 ECL signal
ECL signal [9]: 1840 ECL signal
ECL signal [10]: 2630 ECL signal
ECL signal [11]: 1660 ECL signal
ECL signal [12]: 1750 ECL signal
ECL signal [13]: 5150 ECL signal
B2: Fab VH1-46_IGHD6-6*01_IGHJ1*01_S102A_S103P_S104Y_H111Y & L6_IGKJ1*01 (Fab, V domains shown)
VH: QVQLVQSGAEVKKPGASVKVSCKASGYTFTSYYMHWVRQAPGQGLEWMGIINPSGGSTSYAQKFQGRVTMTRDTSTSTVYMELSSLRSEDTAVYYCAREEYAPYSAEYFQYWGQGTLVTVSS
VL: not shown
notes: Fab made in E. coli; The heavy chain also carries CH1 with Flag and His tags from Plasmid A, and the light chain carries kappa CL from Plasmid C

ECL signal [14]: 183 ECL signal
ECL signal [15]: 340 ECL signal
ECL signal [16]: 384 ECL signal
ECL signal [17]: 328 ECL signal
ECL signal [18]: 37700 ECL signal
ECL signal [19]: 477 ECL signal
B3: Fab VH1-46_IGHD6-6*01_IGHJ1*01_S102A_S103P_S104F & L6_IGKJ1*01_S28P (Fab, V domains shown)
VH: B2 VH with Y104F, Y111H
VL: EIVLTQSPATLSLSPGERATLSCRASQPVSSYLAWYQQKPGQAPRLLIYDASNRATGIPARFSGSGSGTDFTLTISSLEPEDFAVYYCQQRSNWPPWTFGQGTKVEIKR
notes: Fab
